Assay results taken from patent US8653023.

System: protein phosphatase 2A (PP2A), endogenous, in N27 cell lysate

Substance: recombinant pure PKCδ
- 32P-kinase assay: phosphorylation of immunoprecipitated PP2A: PP2A immunoprecipitated from N27 cells was effectively phosphorylated by PKCδ immunoprecipitates as well as by recombinant pure PKCδ
